In publication PMC12346298, “Structures of MmpL complexes reveal the assembly and mechanism of this family of transporters” (Science Advances, 2025):

Tests used:
[1] = target: mycobacterial membrane protein large 5 (MmpL5) transporter, M. smegmatis (M. smegmatis) (UniProt A0QS80); assay: cryo-EM structure; particle class 2 (tripartite trimeric AcpM-MmpL5-MmpS5 complex) from the same LMNG-solubilized crude membrane sample; Build and Retrieve processing; 2.81 Å
[2] = target: mycobacterial membrane protein large 5 (MmpL5) transporter, M. smegmatis (M. smegmatis) (UniProt A0QS80); assay: cryo-EM structure; particle class 3 (dipartite trimeric AcpM-MmpL5 complex) from the same LMNG-solubilized crude membrane sample; Build and Retrieve processing; 3.37 Å
[3] = target: T1, mycobacterial membrane protein large 5 (MmpL5) transporter, M. smegmatis (M. smegmatis, UniProt A0QS80 1-967); assay: cryo-EM structure; particle class 2 (tripartite trimeric AcpM-MmpL5-MmpS5 complex) from the same LMNG-solubilized crude membrane sample; Build and Retrieve processing; 2.81 Å; conditions: partners not purified
T1 construct: MmpL5 of Mycobacterium smegmatis, gene MSMEG_1382 cloned into pBUN250; 12 TM helices, periplasmic subdomains PD1-PD3 (PD3 = residues 499-684); Seen as a monomer (in 2D arrays) and as a homotrimer in different particle classes of one sample; Residues 493-702 are not modelled in 9MX0, residues 499-655 not in 9MW0; also called MSMEG_1382; source: M. smegmatis MC2-155, coexpressed with MmpS5 from …
T1 sequence (looked up): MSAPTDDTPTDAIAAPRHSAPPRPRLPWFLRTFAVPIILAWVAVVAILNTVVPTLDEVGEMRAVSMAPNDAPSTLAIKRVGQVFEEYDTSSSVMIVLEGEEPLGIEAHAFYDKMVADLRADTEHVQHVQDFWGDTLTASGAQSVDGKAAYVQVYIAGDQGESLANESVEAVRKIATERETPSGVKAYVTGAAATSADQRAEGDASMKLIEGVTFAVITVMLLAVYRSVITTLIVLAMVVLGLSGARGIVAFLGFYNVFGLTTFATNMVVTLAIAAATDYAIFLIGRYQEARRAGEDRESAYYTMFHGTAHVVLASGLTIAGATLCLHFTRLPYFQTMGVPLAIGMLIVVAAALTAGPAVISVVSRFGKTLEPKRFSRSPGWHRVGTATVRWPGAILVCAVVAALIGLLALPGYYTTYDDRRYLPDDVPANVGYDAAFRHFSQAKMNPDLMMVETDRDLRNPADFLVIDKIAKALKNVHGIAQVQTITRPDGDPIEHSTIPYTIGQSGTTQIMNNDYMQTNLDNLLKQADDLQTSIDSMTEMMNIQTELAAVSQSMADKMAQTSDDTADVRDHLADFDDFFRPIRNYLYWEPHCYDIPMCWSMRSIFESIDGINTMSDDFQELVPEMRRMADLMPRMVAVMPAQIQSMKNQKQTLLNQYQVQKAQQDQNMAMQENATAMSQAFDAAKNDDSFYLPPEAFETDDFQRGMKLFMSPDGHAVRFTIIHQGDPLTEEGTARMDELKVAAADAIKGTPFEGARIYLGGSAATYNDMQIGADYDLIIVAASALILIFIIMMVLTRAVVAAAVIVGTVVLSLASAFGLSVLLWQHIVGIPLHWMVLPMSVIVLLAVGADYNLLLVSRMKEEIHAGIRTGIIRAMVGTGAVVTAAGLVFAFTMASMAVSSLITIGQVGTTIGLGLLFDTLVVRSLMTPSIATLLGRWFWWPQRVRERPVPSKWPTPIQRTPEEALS

[4] = target: T1, mycobacterial membrane protein large 5 …; assay: cryo-EM structure; particle class 1 (2D arrays of monomeric AcpM-MmpL5 units) from LMNG-solubilized crude M. smegmatis membranes enriched by sucrose cushion; Build and Retrieve processing; 3.35 Å; conditions: partners not purified

Q: How did the stoichiometry N (MmpS5:MmpL5 (3:3)) [1] turn out when “MmpS5 adaptor protein, M. smegmatis (natural protein)” was run?
A: 1

Q: For “mycobacterial membrane protein large 5 (MmpL5) transporter, M. smegmatis (from UniProt A0QS80 1-967) (natural protein)”, which stoichiometry N [2] is on record?
A: 3

Q: What about the stoichiometry N [1] of the same molecule?
A: 3

B1: meromycolate extension acyl carrier protein M (AcpM), M. smegmatis (natural protein, UniProt A0R0B3 1-99, looked up)
chain: MAATQEEIIAGLAEIIEEVTGIEPSEVTPEKSFVDDLDIDSLSMVEIAVQTEDKYGVKIPDEDLAGLRTVGDVVAYIQKLEEENPEAAAALREKFAADQ
notes: AcpM, cytosolic meromycolate extension acyl carrier protein of Mycobacterium smegmatis, not overexpressed; identified in the cryo-EM maps and by proteomics; four-helix bundle, 82 C-alpha atoms compared; Came with MmpL5 from the host cells; source: endogenous, M. smegmatis MC2-155; detergent-solubilized (LMNG) crude membranes, enriched by sucrose cushion centrifugation
Q: What does the source list for B1?
A: stoichiometry N [3]: 1 AcpM:MmpL5 (3:3); stoichiometry N [4]: 1 AcpM:MmpL5 (1:1)
